From patent US20220389097A1 (Genentech, published 2022) come the findings set out here.

The Kd is a measure of binding affinity in units of concentration. A higher Kd goes with a looser complex.

Where no end group is shown, it is not given here.

Assay [1] deals with T1, TREM2 peptide residues 148 to 165 (human).
T1 construct: Peptide of the crystal structures
T1 peptide: ESFEDAHVEHSISRSLLE
Put plainly: crystal structure of the complex.

The target in assay [2] is T2, human TREM2 on cells (human, UniProt Q9NZC2 19-230).
T2 sequence: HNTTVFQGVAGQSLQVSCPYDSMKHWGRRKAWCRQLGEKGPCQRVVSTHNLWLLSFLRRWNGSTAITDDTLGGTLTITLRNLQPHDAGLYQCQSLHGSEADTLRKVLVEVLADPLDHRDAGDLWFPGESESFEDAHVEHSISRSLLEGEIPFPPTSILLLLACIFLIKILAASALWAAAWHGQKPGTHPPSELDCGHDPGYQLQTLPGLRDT
Nature of the assay: cell-based or functional assay.

The target of assay [3] is T2, human TREM2 on cells. Nature of the assay: cell-based or functional assay. The source holds these as a separate data set.
For assay [4], the target named is T3, soluble monomeric human TREM2 (human, UniProt Q9NZC2 19-174, limits assumed).
T3 construct: Not the same as shed sTREM2; also called soluble monomeric TREM2
T3 sequence: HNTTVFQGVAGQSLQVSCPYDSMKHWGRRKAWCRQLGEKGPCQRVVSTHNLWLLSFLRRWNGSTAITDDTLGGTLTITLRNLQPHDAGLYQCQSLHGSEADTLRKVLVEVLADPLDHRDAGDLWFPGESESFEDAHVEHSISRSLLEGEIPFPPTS
Put plainly: SPR (Biacore 8K) at 37 C, mutant IgG captured on anti-human Fab chip, soluble monomeric TREM2 as analyte, off-rate screen.

Assay [5] concerns the target T4, cynomolgus TREM2 stalk antigen (cynomolgus monkey, UniProt A0A2K5UY34 159-204, not fully specified).
T4 construct: domain: stalk
T4 chain: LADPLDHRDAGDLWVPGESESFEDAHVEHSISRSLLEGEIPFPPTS
Nature of the assay: SPR (Biacore T200), 37 C; TREM2 stalk antigen on anti-human IgG1 Fc chip, antibody in solution. The method, then:
(§1) Forty-six rat anti-human antibodies were tested for binding affinity to the hTREM2 and cynomolgus TREM2 stalk. Antibody binding affinities for hTREM2 stalk and cynomolgus TREM2 stalk were measured by surface plasmon resonance (SPR) using a Biacore™ T200 apparatus. TREM2 stalk antigens (human or cynomolgus) were immobilized on anti-human IgG1 Fc Biacore™ chips and anti-TREM2 antibody clones were bound to immobilized TREM2 at 37° C. Binding affinities, KD (nM) were measured and recorded.
(§2) Several antibodies were selected for binding measurements against cynomolgus TREM2 stalk. […] These four antibodies are referred to collectively below as the “3.10C2 group” of antibodies.

The target of another assay is T5, hTREM2 stalk antigen (human, UniProt Q9NZC2 129-174).
T5 construct: also called human TREM2 stalk
T5 chain: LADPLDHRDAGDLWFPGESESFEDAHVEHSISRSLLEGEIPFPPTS
The description is as above. The method, then: as §1, §2

Another assay has as its target T6, 129-148 (biotinylated (site not given)).
T6 construct: member of the group m13
T6 peptide: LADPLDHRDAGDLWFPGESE
Nature of the assay: ELISA: biotinylated peptide captured on streptavidin plate, antibody detected with anti-mouse IgG-HRP. The source says:
(§3) The antibody epitopes were mapped to the stalk region of human TREM2 using enzyme-linked immunosorbent assay (ELISA). Overlapping biotinylated peptides were captured in ELISA plates coated with streptavidin. The binding of antibodies to peptides was detected with an anti-mouse IgG conjugated to horseradish peroxidase.
On the technique in general: An ELISA detects its analyte on a solid surface through an enzyme-linked reagent.

Assay [6] deals with T7, hTREM2 stalk peptide 149-168 (human, biotinylated).
T7 peptide: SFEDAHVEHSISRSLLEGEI
The assay is described as above.
From the text: as §3

The target in the next assay is T8, 159-175 (also: biotinylated (site not given here)).
T8 construct: member of the group m13
T8 peptide: ISRSLLEGEIPFPPTSI
The description is as above.
From the text: as §3

Assay [7] concerns the target T9, hTREM2 stalk peptide residues 129-175 (human, biotinylated).
T9 construct: also called human TREM2 stalk peptide
T9 peptide: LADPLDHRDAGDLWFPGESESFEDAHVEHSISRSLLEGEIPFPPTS
The assay is described as above.
From the text: as §3

For assay [8], the target named is T10, hTREM2 stalk peptide 146-161 (human, also: biotinylated (site not given here)).
T10 peptide: ESESFEDAHVEHSISR
The description is as above.
From the text: as §3

In the next assay the target is T11, 139-158 (biotinylated (site not given)).
T11 construct: member of the group m13
T11 peptide: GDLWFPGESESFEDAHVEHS
Described as above.
From the text: as §3

In assay [9] the target is T12, hTREM2 stalk peptide 151-165 (human, also: biotinylated (position not given here)).
T12 peptide: EDAHVEHSISRSLLE
The assay is described as above.
From the text: as §3

For the next assay, the target named is T13, 152-161 (also: biotinylated (site not given here)).
T13 construct: member of the group m13
T13 peptide: DAHVEHSISR
Described as above.
From the text: as §3

Assay [10] deals with T14, hTREM2 stalk peptide 146-169 (human, biotinylated).
T14 peptide: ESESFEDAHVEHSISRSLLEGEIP
Described as above.
From the text: as §3

The target in another assay is T15, 155-169 (also: biotinylated (site not given here)).
T15 construct: member of the group m13
T15 peptide: VEHSISRSLLEGEIP
The assay is described as above.
From the text: as §3

A further assay has as its target T16, 154-164 (also: biotinylated (site not given here)).
T16 construct: member of the group m13; also called hTREM2 stalk 154-164
T16 peptide: HVEHSISRSLL
The description is as above.
From the text: as §3

B1: hPara.09.v2 Q100P (antibody, V domains shown)
VH: EVQLVESGGGLVQPGGSLKLSCATSGFPFSNVWLHWVRQASGKGPEWVAHIKAKSDNYATYYAESVKGRFTISRDDSKNTVYLQMNSLKTEDTAVYYCTDILEYWGQGTLVTVSS
VL: DVVMTQSPLSLPVTPGEPASISCRSSRSLLTSKGITSLYWYLQKPGQSPQLLIYRMSNLASGIPDRFSGSGSGTDFTLKISRVEAEDVGVYYCAQFLVYPYTFGPGTKVEIK
notes: Human IgG1 N297G in the cell assays; also called huPara.09.v2 Q100P; hPara.09 Q100P
As for B1, the binding result in assay [1] is reported as “binds”. In the assay with human TREM2 on cells [2], the “EC50, Jurkat NFAT luciferase reporter cells” value amounted to 0.0178 µg/mL and the “IC50, TREM2 shedding inhibition in Jurkat-NFAT reporter cells (sTREM2 ELISA)” value is 0.123 µg/mL. In the assay with human TREM2 on cells [3], the “EC50, average X04 plaque intensity, human iPSC-derived microglia plaque assay (FIG. 24C)” value was found to be 500 nM; the “EC50, survival of iPSC-derived microglia (FIG. 23E)” value came out at 0.61 nM; the “EC50, total Abeta plaque intensity, human iPSC-derived microglia plaque assay (FIG. 24B)” value worked out at 120 nM.

B2: h3.10C2.v1 Q100P (antibody, V domains shown)
VH: EVQLVESGGGLVQPGGSLKLSCATSGFPFSNVWMHWVRQASGKGLEWIAHIKAKSDNYATYYAESVKGRFTISRDDSKTTIYLQMNSLKTEDTAVYYCTGLDYWGQGTTVTVSS
VL: DVVMTQSPLSLPVTPGEPASISCRSSRSLLTSKGITSLYWYLQKPGQSPQLLIYRMSNLASGIPDRFSGSGSGTDFTLKISRVEAEDVGVYYCAQFLVYPYTFGPGTKVEIK
notes: also called hu3.10C2.v1 Q100P
B2: the binding result in assay [1] is “binds”.

B3: T93H (antibody, V domains shown)
VH: EVQLVETGGSLVQPGKSLKLTCATSGFPFSNVWMHWVRQSPEKQLEWIAHIKAKSDNYATYYAESVKGRFTISRDDSKTSIYLQMNSLKEDDTAIYYCHGLDYWGQGVMVTVSS
VL: DTVLTQAPLSLSVTPGESASISCRSSKSLLGVRDITSLYWYLQKPGKSPQLLIYRMSNLASGVPDRFSGSGSETDFTLKISEVETEDVGVYYCAQFLRYPYTFGPGTKLELK
B3 came in with a fold improvement (lower dissociation rate kd) relative to wild-type 3.10C2 in assay [4] of 1.4 fold.

B4: T93E (antibody, V domains shown)
VH: EVQLVETGGSLVQPGKSLKLTCATSGFPFSNVWMHWVRQSPEKQLEWIAHIKAKSDNYATYYAESVKGRFTISRDDSKTSIYLQMNSLKEDDTAIYYCEGLDYWGQGVMVTVSS
VL: DTVLTQAPLSLSVTPGESASISCRSSKSLLGVRDITSLYWYLQKPGKSPQLLIYRMSNLASGVPDRFSGSGSETDFTLKISEVETEDVGVYYCAQFLRYPYTFGPGTKLELK
For B4, the fold improvement (lower dissociation rate kd) relative to wild-type 3.10C2 in assay [4] was 2 fold.

B5: 3.18E5 (rat anti-human TREM2 antibody) (antibody, IgG2a, V domains shown)
VH: EVQLVETGGSLVQPGKSLKLTCATSGFPFSNVWMHWVRQSPEKQLEWIAHIKAKSDNYATYYAESVKGRFTISRDDSKTTIYLQMNSLKEADTAIYYCTGLDYWGQGVMVTVSS
VL: DTVLTQAPLSVSVTPGESASISCRSNKSLLGIRDITSLYWYLQKPGKSPQLLIYRMSNLASGVPDRFSGSGSETDFTLKISEVETEDVGVYYCAQFLRYPYTFGPGTKLELK
notes: Whole IgG
For the molecule B5, the Kd in [5] turned out to be 0.3 nM; with hTREM2 stalk antigen, 0.26 nM. The “A620 absorbance (ELISA)” value was 0.28 A620 with 129-148; 1.46 A620 in assay [6]; 0.07 A620 in the assay with 159-175; 1.65 A620 in assay [7]; 2.89 A620 in assay [8]; 0.51 A620 with 139-158. The “A620 absorbance (ELISA)” value in [9] is 2.42 A620; in the assay with 152-161 it was 0.15 A620; in assay [10], 1.48 A620; with 155-169 it was 0.14 A620; with 154-164 it was 0.4 A620.

B6: 3.10C2 (rat anti-human TREM2 antibody) (antibody, V domains shown)
VH: EVQLVETGGSLVQPGKSLKLTCATSGFPFSNVWMHWVRQSPEKQLEWIAHIKAKSDNYATYYAESVKGRFTISRDDSKTSIYLQMNSLKEDDTAIYYCTGLDYWGQGVMVTVSS
VL: DTVLTQAPLSLSVTPGESASISCRSSKSLLGVRDITSLYWYLQKPGKSPQLLIYRMSNLASGVPDRFSGSGSETDFTLKISEVETEDVGVYYCAQFLRYPYTFGPGTKLELK
notes: Whole IgG with rat variable regions; also called clone 3.10C2
Regarding B6, the Kd in assay [5] was 0.25 nM; with hTREM2 stalk antigen it was 0.24 nM. The “A620 absorbance (ELISA)” value with 129-148 was 0.19 A620; in [6], 2.16 A620; in the assay with 159-175 it was 0.07 A620; in [7], 1.91 A620; in [8] it was 2.95 A620; in the assay with 139-158 it was 0.37 A620. Further, the “A620 absorbance (ELISA)” value is 2.52 A620 in assay [9]; 0.12 A620 with 152-161; 1.65 A620 in [10]; 0.13 A620 in the assay with 155-169; 0.39 A620 with 154-164.

B7: 3.50G1 (rat anti-human TREM2 antibody) (antibody, IgG2a, V domains shown)
VH: EVQLVETGGSLVQPGKSLKLTCATSGFPFSNVWMHWVRQSPEKQLEWIAHIKAKSDNYATYYAESVKGRFTISRDDSKTSIYLQMNSLKDDDTAIYYCTGLDYWGQGVMVTVSS
VL: DTVLTQAPLSVSVTPGESASISCRSNKSLLGIRDITSLYWFLQKPGKSPQLLIYRMSNLASGVPDRFSGSGSETDFTLKISEVETEDVGVYYCAQFLRYPYTFGPGTKLELQ
notes: Whole IgG
Consider B7, for which the dissociation constant Kd in assay [5] was 0.57 nM; in the assay with hTREM2 stalk antigen, 0.61 nM. For the same molecule, the “A620 absorbance (ELISA)” value in the assay with 129-148 amounted to 0.19 A620; in assay [6] it was 1.28 A620; with 159-175 it was 0.08 A620; in [7], 2.13 A620; in [8], 2.52 A620; with 139-158 it was 0.43 A620. Besides, the “A620 absorbance (ELISA)” value turned out to be 2.32 A620 in assay [9]; 0.14 A620 with 152-161; 1.88 A620 in assay [10]; 0.13 A620 with 155-169; 0.26 A620 in the assay with 154-164.

B8: 3.27H7 (rat anti-human TREM2 antibody) (antibody, V domains shown)
VH: EVQLVETGGSLVQPGGSLKLTCATSGFPFSNVWLHWIRRSPEKQLEWVAQIKARSDNYATYYAESVKGRFIVSRDDSKTTIYLQMNNLKEEDTAIYYCTGLDYWGQGVMVTVSS
VL: DVVLTQAPLSVSVTPGESASISCRSSRSLLTSKGITSLYWYLQKPGMSPHLLIYRMSNLASGIPDRFSGSGSETDFTLKISEVEPEDVGVYYCAQFLVYPYTFGAGTKLELK
notes: Whole IgG
Regarding B8, the dissociation constant (Kd) amounted to 0.26 nM in [5] and 0.22 nM with hTREM2 stalk antigen.
